According to article PMC7979852, “Alpha-1 antitrypsin inhibits TMPRSS2 protease activity and SARS-CoV-2 infection” (Nature Communications, 2021):

Target: T1, α1-antitrypsin (human, UniProt P01009 25-418)
T1 construct: alpha-1-antitrypsin (SERPINA1), human, plasma-derived, 52 kDa; The activity assays used Prolastin; also called α1AT; alpha-1 antitrypsin; source: bought: Merck (A9024) or GRIFOLS (Prolastin), purified from human plasma
Assay: SPR; TMPRSS2 amine-coupled (NHS/EDC) on an MUA-functionalised gold chip, Reichert SR7000; α1AT flowed at 0-20 µM in 10 mM HEPES, 150 mM NaCl, 0.05 % Tween-20, pH 7.5, 10 µl/min; equilibrium analysis
Conditions: both partners purified

T1 sequence (P01009 25-418): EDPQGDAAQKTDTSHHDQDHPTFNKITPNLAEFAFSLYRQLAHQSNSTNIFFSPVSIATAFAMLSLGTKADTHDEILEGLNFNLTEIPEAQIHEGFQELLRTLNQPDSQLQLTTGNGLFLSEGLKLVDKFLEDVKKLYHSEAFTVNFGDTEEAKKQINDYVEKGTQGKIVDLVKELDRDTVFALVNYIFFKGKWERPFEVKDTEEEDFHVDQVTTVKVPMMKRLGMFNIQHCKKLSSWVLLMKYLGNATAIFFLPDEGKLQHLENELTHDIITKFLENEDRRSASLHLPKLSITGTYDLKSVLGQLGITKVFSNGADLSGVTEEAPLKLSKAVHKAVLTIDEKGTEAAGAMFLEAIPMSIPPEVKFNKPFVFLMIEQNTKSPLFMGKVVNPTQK

B1: recombinant TMPRSS2 (enzyme)
chain: not shown
notes: TMPRSS2, human, recombinant protein from Creative BioMart; No catalogue number or construct limits are printed; The cell-associated activity assay used TMPRSS2 expressed from Addgene 53887 in HEK293T cells; also called recombinant human TMPRSS2; transmembrane serine protease 2; source: bought: Creative BioMart
Kd: 941 ± 297 nM
